As a reminder, the Kd is a measure of binding affinity in units of concentration. As a reminder, the koff is a measure of how fast the partners let go of each other. The low end stands for a long-lived complex, the high end for a short-lived complex. A word on the kon: it is the second-order rate constant of association. A higher kon goes with faster complex formation.

The chains are these.
T1: DnaEBs DNA polymerase (Bacillus subtilis DnaE) (Bacillus subtilis, UniProt O34623 1-1115)
T1 sequence (looked up): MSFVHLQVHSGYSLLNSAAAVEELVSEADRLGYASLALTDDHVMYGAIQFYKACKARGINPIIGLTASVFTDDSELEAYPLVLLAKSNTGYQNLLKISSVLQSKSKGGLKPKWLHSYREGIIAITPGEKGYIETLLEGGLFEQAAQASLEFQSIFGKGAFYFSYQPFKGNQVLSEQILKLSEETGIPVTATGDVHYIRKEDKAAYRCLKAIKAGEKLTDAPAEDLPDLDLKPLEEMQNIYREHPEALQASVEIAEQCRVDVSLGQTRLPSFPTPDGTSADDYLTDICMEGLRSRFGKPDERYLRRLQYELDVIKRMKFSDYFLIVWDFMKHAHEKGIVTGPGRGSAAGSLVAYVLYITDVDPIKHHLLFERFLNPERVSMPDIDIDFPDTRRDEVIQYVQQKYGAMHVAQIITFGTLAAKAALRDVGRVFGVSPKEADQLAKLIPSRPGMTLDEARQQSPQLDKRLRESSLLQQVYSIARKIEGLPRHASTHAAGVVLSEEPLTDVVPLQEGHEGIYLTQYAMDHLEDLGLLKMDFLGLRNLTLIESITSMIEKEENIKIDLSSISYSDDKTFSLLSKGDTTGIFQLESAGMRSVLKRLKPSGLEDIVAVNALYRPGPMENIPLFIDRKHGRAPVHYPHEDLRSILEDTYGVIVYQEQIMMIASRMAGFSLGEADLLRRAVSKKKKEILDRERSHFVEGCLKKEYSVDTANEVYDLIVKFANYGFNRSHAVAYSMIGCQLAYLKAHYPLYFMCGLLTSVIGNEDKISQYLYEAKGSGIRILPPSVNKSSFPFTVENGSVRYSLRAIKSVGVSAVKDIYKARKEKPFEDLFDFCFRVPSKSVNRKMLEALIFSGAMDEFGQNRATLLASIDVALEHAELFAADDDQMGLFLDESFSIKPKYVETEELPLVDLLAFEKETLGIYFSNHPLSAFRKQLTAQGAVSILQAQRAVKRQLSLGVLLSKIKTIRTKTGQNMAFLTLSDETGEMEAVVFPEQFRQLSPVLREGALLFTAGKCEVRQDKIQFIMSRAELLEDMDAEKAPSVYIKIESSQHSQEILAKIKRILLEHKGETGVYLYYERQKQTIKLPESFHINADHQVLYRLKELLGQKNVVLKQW

B1: DnaG primase (Bacillus subtilis) (enzyme, UniProt P05096 1-603, looked up)
chain: MGNRIPDEIVDQVQKSADIVEVIGDYVQLKKQGRNYFGLCPFHGESTPSFSVSPDKQIFHCFGCGAGGNVFSFLRQMEGYSFAESVSHLADKYQIDFPDDITVHSGARPESSGEQKMAEAHELLKKFYHHLLINTKEGQEALDYLLSRGFTKELINEFQIGYALDSWDFITKFLVKRGFSEAQMEKAGLLIRREDGSGYFDRFRNRVMFPIHDHHGAVVAFSGRALGSQQPKYMNSPETPLFHKSKLLYNFYKARLHIRKQERAVLFEGFADVISAVSSDVKESIATMGTSLTDDHVKILRRNVEEIILCYDSDKAGYEATLKASELLQKKGCKVRVAMIPDGLDPDDYIKKFGGEKFKNDIIDASVTVMAFKMQYFRKGKNLSDEGDRLAYIKDVLKEISTLSGSLEQEVYVKQLASEFSLSQESLTEQLSVFSKQNKPADNSGETKTRRAHLTTKARQKRLRPAYENAERLLLAHMLRDRSVIKKVIDRVGFQFNIDEHRALAAYLYAFYEEGAELTPQHLMARVTDDHISQLLSDILMLQVNQELSEAELSDYVKKVLNQRNWSMIKEKEAERAEAERQKDFLRAASLAQEIVTLNRSLK
B2: DnaC6-DnaI6 complex (co-purified DnaC helicase and DnaI loader) (complex, Bacillus subtilis)
chain 1: MTDLLNDRLPPQNIEAEQAVLGAIFLQPSALTLASEVLIPDDFYRMSHQKIYNAMLVLGDRGEPVDLVTVTSELANTDLLEEVGGISYLTDIANSVPTAANIEYYAKIVEEKSILRRLIRTATTIAQDGYTREDEVEDLLSEAEKTIMEVAQRKNTSAFQNIKDVLVQTYDNIEQLHNRKGDITGIPTGFTELDRMTAGFQRNDLIIVAARPSVGKTAFALNIAQNVATKTDESVAIFSLEMGAEQLVMRMLCAEGNINAQNLRTGNLTEEDWGKLTMAMGSLSNSGIYIDDTPGIRVSEIRAKCRRLKQESGLGMILIDYLQLIQGSGRSKDNRQQEVSEISRELKSIARELQVPVIALSQLSRGVEQRQDKRPMMSDIRESGSIEQDADIVAFLYRDDYYDKETENKNIIEIIIAKQRNGPVGTVSLAFVKEYNKFVNLERRFDDAGVPPGA
chain 2: MEPIGRSLQGVTGRPDFQKRLEQMKEKVMKDQDVQAFLKENEEVIDQKMIEKSLNKLYEYIEQSKNCSYCSEDENCNNLLEGYHPKLVVNGRSIDIEYYECPVKRKLDQQKKQQSLMKSMYIQQDLLGATFQQVDISDPSRLAMFQHVTDFLKSYNETGKGKGLYLYGKFGVGKTFMLAAIANELAEKEYSSMIVYVPEFVRELKNSLQDQTLEEKLNMVKTTPVLMLDDIGAESMTSWVRDEVIGTVLQHRMSQQLPTFFSSNFSPDELKHHFTYSQRGEKEEVKAARLMERILYLAAPIRLDGENRRHP

Test [1] has as its target T1, DnaEBs DNA polymerase (Bacillus …). Kind of test: SPR. A general note: In SPR one partner is held on a chip, and binding of the other changes the refractive index at the surface.
Test [2] has as its target B2. The experiment in a line: SPR.
Test [3] deals with T1, DnaEBs DNA polymerase (Bacillus …). The experiment in a line: SEC. On the technique in general: SEC sorts molecules by how far they enter the pores of the column.

In test [1], B1 came in with a Ka of 1.33e+08 M⁻¹, a dissociation constant (Kd) of 752 nM, an off-rate constant (koff) of 0.00181 s⁻¹ and an on-rate (kon) of 2400 M⁻¹ s⁻¹. Further, in test [2], the Ka was determined as 3.77e+06 M⁻¹; the affinity, expressed as Kd, was 295 nM; the off-rate (koff) was 0.000287 s⁻¹; the kon came to 1080 M⁻¹ s⁻¹.

Take B2: the binding result in test [3] is reported as “binds”.

(Values after publication PMC3664799 (Nucleic Acids Research, 2013).)
